Measured values taken from patent US20220275067A1 (PROTHENA BIOSCIENCES, published 2022).
Numbering of substitutions follows the chain as printed.

B1: mouse 14H3 antibody (antibody, mouse IgG2a, V domains shown)
VH: QVTLKESGPGILQPSQTLSLTCSFSGFSLSTYGMGVGWIRQPSGKGLEWLANIWWDDIKYYNAALKSRLTISKDTSKNQVFLKIASVDTADTATYYCARNVDYWGQGTTLTVSS
VL: DVVMTQTPLSLPVSLGDQASISCRSSQSLVHSNGNTFLHWYLQKPGQSPKLLIYKVSNRFSGVPDRFSGSGSGTDFTLKISRVEAEDLGVYFCSQSTLVPWTFGGGTKLEIK
modifications: here or on the partner: pHrodo label
B2: mouse 9F5 antibody (antibody, mouse IgG1, V domains shown)
VH: EVQLQQSGAELVRPGASVKLSCTASGFNIKDDYMNWVKQRPERGLEWIGWIDPENGDTEYASKFQGKATMTADTSSNTAYLQFSSLTSEDTAVYYCTTSNGWGQGTLVTVST
VL: DIVMTQAAFSNPVTLGTSASISCRSSKSLLHSNGITYLYWYLQKPGQSPQLLIYQMSNLASGVPDRFSSSGSGTDFTLRISRVEAEDVGVYYCAQNLELPLTFGAGTKLELK
modifications: here or on the partner: pHrodo label
B3: mouse 2D11 antibody (antibody, mouse IgG2a, V domains shown)
VH: B2 VH
VL: B2 VL
modifications: here or on the partner: pHrodo label
B4: mouse 10C12 antibody (antibody, mouse IgG2a, V domains shown)
VH: B2 VH
VL: B2 VL
modifications: here or on the partner: pHrodo label
B5: mouse 17C12 antibody (antibody, mouse IgG2a, V domains shown)
VH: B2 VH with E1K, V2I, G26A, E59K, F83L, T112A
VL: DVVMTQTPLTLSVTIGQPASISCTSSQSLLHSNRKTYLHWLLQRPGQSPKLLIYLVSKLESGVPDRFSGSGSGTDFTLKISRVEAEDLGVYYCLQTTHFPRTFGGGTKLEIK
modifications: here or on the partner: pHrodo label
B6: hu9F5VHv9/hu9F5VLv8_DIM19 (antibody, V domains shown)
VH: EVQLVQSGAEVKKPGATVKISCKASGFNIKDDYMNWVQQRPGKGLEWIGWIDPENGDTEYASKFQGRATMTADTSTNTAYMELSSLRSEDTAVYYCTTSNGWGQGTLVTVSS
VL: DIQMTQSPFSLPVTPGESASISCRSSKSLSHSNGITYLYWYIQKPGQSPQLLIYQISNRASGVPNRFSSSGSGTDFTLKISRVEAEDVGVYYCAQNIELPLTFGQGTKLEIK
B7: hu9F5VHv10/hu9F5VLv9_DIM8 (antibody, V domains shown)
VH: B6 VH with Q38K, G42E
VL: B6 VL with S30G, I42Q, I56K, N65D
B8: hu9F5VHv10/hu9F5VLv9_DIM1 (antibody, V domains shown)
VH: B6 VH with Q38K, G42E
VL: B6 VL with I42Q, I56G, R59G, N65D
B9: hu9F5VHv9/hu9F5VLv8_DIM29 (antibody, V domains shown)
VH: B6 VH
VL: B6 VL with I42Q, I56M
B10: hu9F5VHv10/hu9F5VLv9_DIM11 (antibody, V domains shown)
VH: B6 VH with Q38K, G42E
VL: B6 VL with S30G, I42G, I56G, N65D
notes: also called H10L9-DIM11; H10L9DIM11
B11: hu9F5VHv9/hu9F5VLv8_DIM30 (antibody, V domains shown)
VH: B6 VH
VL: B6 VL with I42Q, I56G, R59L
B12: hu9F5VHv9/hu9F5VLv8_DIM27 (antibody, V domains shown)
VH: B6 VH
VL: B6 VL with S30L, I42Q, I56G
B13: hu9F5VHv9/hu9F5VLv8_DIM24 (antibody, V domains shown)
VH: B6 VH
VL: B6 VL with S30G, I56E
B14: hu9F5VHv10/hu9F5VLv9_DIM5 (antibody, V domains shown)
VH: B6 VH with Q38K, G42E
VL: B6 VL with S30G, I42Q, I56G, N65D
B15: hu9F5VHv10/hu9F5VLv9_DIM4 (antibody, V domains shown)
VH: B6 VH with Q38K, G42E
VL: B6 VL with I42Q, I56G, N65D, I97G
B16: hu9F5VHv9/hu9F5VLv8_DIM20 (antibody, V domains shown)
VH: B6 VH
VL: B6 VL with I42Q, R59G
B17: hu9F5VHv10/hu9F5VLv9_DIM10 (antibody, V domains shown)
VH: B6 VH with Q38K, G42E
VL: B6 VL with I42Q, I56K, R59G, N65D
B18: hu9F5VHv9/hu9F5VLv8_DIM28 (antibody, V domains shown)
VH: B6 VH
VL: B6 VL with I42L, I56G
B19: hu9F5VHv10/hu9F5VLv9_DIM13 (antibody, V domains shown)
VH: B6 VH with Q38K, G42E
VL: B6 VL with S30G, I42G, I56G, N65D, I97L
B20: hu9F5VHv9/hu9F5VLv8_DIM25 (antibody, V domains shown)
VH: B6 VH
VL: B6 VL with S30G, I56E, I97G
B21: hu9F5VHv10/hu9F5VLv9_DIM2 (antibody, V domains shown)
VH: B6 VH with Q38K, G42E
VL: B6 VL with I42Q, I56G, N65D
B22: hu9F5VHv10/hu9F5VLv9_DIM20 (antibody, V domains shown)
VH: B6 VH with Q38K, G42E
VL: B6 VL with I42Q, R59G, N65D
B23: hu9F5VHv10/hu9F5VLv9_DIM19 (antibody, V domains shown)
VH: B6 VH with Q38K, G42E
VL: B6 VL with N65D
B24: hu9F5VHv9/hu9F5VLv8_DIM21 (antibody, V domains shown)
VH: B6 VH
VL: B6 VL with I42Q, R59G, I97L
B25: hu9F5VHv9/hu9F5VLv8_DIM22 (antibody, V domains shown)
VH: B6 VH
VL: B6 VL with I42Q, I56E
B26: hu9F5VHv9/hu9F5VLv8_DIM26 (antibody, V domains shown)
VH: B6 VH
VL: B6 VL with S30I, I56E, I97L
B27: hu9F5VHv9/hu9F5VLv8_DIM23 (antibody, V domains shown)
VH: B6 VH
VL: B6 VL with S30G, I42Q, I56E, R59G

Molecular target: pHrodo-labeled tau P301L soluble oligomer, P10636
Sequence (P10636 other isoform, or with tags, fused parts or gaps P301L P301L): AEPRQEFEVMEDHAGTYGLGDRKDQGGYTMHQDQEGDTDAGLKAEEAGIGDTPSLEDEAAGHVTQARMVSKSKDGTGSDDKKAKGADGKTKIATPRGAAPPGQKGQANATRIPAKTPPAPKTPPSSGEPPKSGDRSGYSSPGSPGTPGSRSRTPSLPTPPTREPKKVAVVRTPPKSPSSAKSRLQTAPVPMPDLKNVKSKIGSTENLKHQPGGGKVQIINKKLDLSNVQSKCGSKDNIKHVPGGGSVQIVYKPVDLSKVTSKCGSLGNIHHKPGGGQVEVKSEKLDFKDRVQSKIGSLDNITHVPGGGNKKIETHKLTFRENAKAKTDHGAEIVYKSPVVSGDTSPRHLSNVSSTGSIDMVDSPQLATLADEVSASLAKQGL
Assay: cell-based or functional assay

| internalized pHrodo-tau in B103 cells (FACS), antibody at 0.061 µg/mL (% of maximum signal) | internalized pHrodo-tau in B103 cells (FACS), antibody at 0.244 µg/mL (% of maximum signal) | internalized pHrodo-tau in B103 cells (FACS), antibody at 0.98 µg/mL (% of maximum signal) | internalized pHrodo-tau in B103 cells (FACS), antibody at 3.9 µg/mL (% of maximum signal) | internalized pHrodo-tau in B103 cells (FACS), antibody at 15.625 µg/mL (% of maximum signal) | internalized pHrodo-tau in B103 cells (FACS), antibody at 62.5 µg/mL (% of maximum signal) | Binder |
| --- | --- | --- | --- | --- | --- | --- |
| 79.7 | 66 | 67.8 | 63.1 | 53.2 | 48.4 | B1 |
| 78.1 | 71.7 | 71 | 35.9 | 24.2 | 18.1 | B2 |
| 71.5 | 79.5 | 62.7 | 43 | 28.6 | 28.4 | B3 |
| 86.7 | 9.09 | 90.5 | 55.2 | 38.9 | 34.5 | B4 |
| 79.8 | 78.6 | 63.9 | 36.8 | 32.4 | 30.6 | B5 |

Molecular target: T1, recombinant human 4R0N tau (human, UniProt P10636 2-758)
T1 construct: also called recombinant 4R0N human tau; P10636-6
T1 sequence (P10636 other isoform, or with tags, fused parts or gaps limits assumed): as the sequence (P10636 other isoform, or with tags, fused parts or gaps P301L P301L) above
Assay: SPR Biacore T200; antibody captured by anti-human Fc; tau as analyte; global 1:1 fit
Method: Target binding analysis was performed using a Biacore T200 to compare the binding affinity of humanized 9F5 variants to recombinant human 4R0N tau. Anti-Human Fc antibody was immobilized on sensor chip CM3 via amine coupling, and humanized 9F5 variants were captured to equivalent levels. Various concentrations of recombinant 4R0N human tau (ranging from 0.02 nM to 12.5 nM) were passed over the captured ligand at 50 μL/min in running buffer (HBS+0.05% P-20, 1 mg/mL BSA) for 180 seconds association/420 seconds dissociation as a single cycle. Data was blank subtracted to both an irrelevant sensor not containing antibody and 0 nM analyte concentration. Analysis was performed using a global 1:1 fit with Biacore Evaluation software.

| Kd [nM] | koff [s⁻¹] | kon [M⁻¹ s⁻¹] | Binder |
| --- | --- | --- | --- |
| 0.597 | 0.00215 | 3.61e+06 | B6 |
| 0.859 | 0.00232 | 2.71e+06 | B7 |
| 1.47 | 0.00395 | 2.69e+06 | B8 |
| 0.27 | 0.000534 | 1.98e+06 | B9 |
| 0.163 | 0.000287 | 1.76e+06 | B10 |
| 0.438 | 0.000447 | 1.02e+06 | B11 |
| 0.16 | 0.000385 | 2.41e+06 | B12 |
| 0.454 | 0.000993 | 2.19e+06 | B13 |
| 0.542 | 0.000919 | 1.7e+06 | B14 |
| 1.74 | 0.00439 | 2.53e+06 | B15 |
| 12.3 | 0.0694 | 5.64e+06 | B16 |
| 3.77 | 0.026 | 6.89e+06 | B17 |
| 0.0692 | 0.000217 | 3.13e+06 | B18 |
| 0.508 | 0.00116 | 2.28e+06 | B19 |
| 3.15 | 0.0409 | 1.3e+07 | B20 |
| 0.679 | 0.00184 | 2.72e+06 | B21 |
| 9.62 | 0.0334 | 3.47e+06 | B22 |
| 1.97 | 0.00688 | 3.49e+06 | B23 |
| 858 | 1.12 | 1.31e+06 | B24 |
| 0.39 | 0.000878 | 2.25e+06 | B25 |
| 1.04 | 0.004 | 3.84e+06 | B26 |
| 1.24 | 0.0832 | 6.69e+07 | B27 |
